Holding throughout (test): MST
Assay [1] deals with EphA2 ICRΔSAM, kinase-dead (D739N) (human).
Assay [2] addresses EphA2 ICRΔSAM, wildtype, phosphorylated (human).
Assay [3] concerns the target EphA2 intracellular region (ICR), kinase-dead (D739N) (human) (UniProt P29317).
In assay [4] the target is EphA2 intracellular region (ICR), wildtype, phosphorylated (human) (UniProt P29317).
For assay [5], the target named is EphA2 ICRΔSAM, wildtype, phosphorylated (human). The source holds these as a separate data set.
Target sequence in this assay (P29317 899-973, stated change not applied): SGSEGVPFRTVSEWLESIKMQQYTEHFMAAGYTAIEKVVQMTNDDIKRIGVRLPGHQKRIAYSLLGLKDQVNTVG

Read-outs that look alike come from different tables or passages of the source.

The term Kd denotes the constant that tells how readily two partners part at equilibrium. Read a high Kd as weaker binding. In turn, “EphA2 ICRΔSAM, kinase-dead (D739N) (domain or fragment)” showed a dissociation constant Kd in assay [1] of 1 µM.
The molecule “EphA2 ICRΔSAM, wildtype, phosphorylated (domain or fragment)” returned a Kd in assay [2] of 5.4 µM.
On to “EphA2 intracellular region (ICR), kinase-dead (D739N) (from UniProt P29317 559-976) (domain or fragment)”, for which the dissociation constant (Kd) in assay [3] was determined as 1.3 µM.
As to “EphA2 intracellular region (ICR), wildtype, phosphorylated (from UniProt P29317 559-976) (domain or fragment)”, in assay [4], the dissociation constant Kd turned out to be 15 µM.

B1: SHIP2 SAM domain (isolated) (domain or fragment)
chain: GMSAWLRAIGLERYEEGLVHNGWDDLEFLSDITEEDLEEAGVQDPAHKRLLLDTLQLSK
B1 showed a Kd in assay [5] of 7.5 µM.

Values taken from doi:10.1101/2025.09.29.679228.
